Values of other authors, collected in JP2018508186A, “Il−17a結合ポリペプチド” (アフィボディ アクティエボラーグ, priority 2015, dated 2016).

How the values were obtained:
IL-17A [1] = target: T1, IL-17A (Homo sapiens, UniProt Q16552); conditions: from WO2006/013107, WO2012/125680, WO2007/070750; read-out: KD for IL-17A, reported
IL-17A [2] = target: T1, IL-17A; conditions: from WO2006/013107 and WO2012/125680; read-out: IC50, hIL-6 production neutralising activity, reported

T1 sequence (Q16552 24-155): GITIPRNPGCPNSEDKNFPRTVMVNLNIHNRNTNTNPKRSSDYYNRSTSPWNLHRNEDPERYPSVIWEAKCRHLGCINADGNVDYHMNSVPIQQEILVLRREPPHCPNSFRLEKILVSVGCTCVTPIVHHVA

イキセキズマブ: anti-IL-17A monoclonal antibody
Kd (IL-17A [1]): 2 pM

セクキヌマブ: anti-IL-17A monoclonal antibody
Kd (IL-17A [1]): 122 pM | IC50 (IL-17A [2]): 2100 ± 100 pM
